One test addresses ER-VP64 (mouse) (UniProt P19785). Kind of test: cell-based or functional assay.
In the next test the target is Cf2-PBD-VP64 (human) (UniProt P06401). Kind of test: cell-based or functional assay.

The values below come from patent US20080318839A1.

Sequence of ER-VP64 (mouse) (P19785 282-599 G525R): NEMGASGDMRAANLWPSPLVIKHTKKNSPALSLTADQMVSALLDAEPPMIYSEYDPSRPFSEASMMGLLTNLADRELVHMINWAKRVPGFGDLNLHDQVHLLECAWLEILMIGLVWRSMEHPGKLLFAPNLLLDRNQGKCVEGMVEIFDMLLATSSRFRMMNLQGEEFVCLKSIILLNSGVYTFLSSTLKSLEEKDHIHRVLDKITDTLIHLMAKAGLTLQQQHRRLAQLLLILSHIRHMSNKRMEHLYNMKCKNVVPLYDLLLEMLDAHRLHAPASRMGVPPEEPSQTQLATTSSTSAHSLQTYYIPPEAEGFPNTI
Sequence of Cf2-PBD-VP64 (human) (P06401 640-914): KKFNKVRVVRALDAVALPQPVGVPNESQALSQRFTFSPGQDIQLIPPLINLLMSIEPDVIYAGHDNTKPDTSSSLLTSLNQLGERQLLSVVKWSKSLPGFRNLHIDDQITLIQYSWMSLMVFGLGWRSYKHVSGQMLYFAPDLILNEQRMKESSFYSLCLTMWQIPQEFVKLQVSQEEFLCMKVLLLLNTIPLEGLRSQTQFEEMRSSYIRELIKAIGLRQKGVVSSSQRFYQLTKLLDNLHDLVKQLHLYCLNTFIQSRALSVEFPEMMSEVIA
Sequence of C7-PBD-VP64 (P06401 640-914): as above

In the case of E2C-ER (from UniProt P19785 282-599), in the test with ER-VP64 (mouse), the luciferase assay, erbB-2 promoter activity in HeLa cells, with Tamoxifen came out at 3 fold and the tamoxifen-dependent activation of the erbB-2 promoter (luciferase) was 5.3 fold.
“C7-PBD-VP64 (from UniProt P06401 640-914)” came in with a ligand-dependent change in transcription, C7-Cf2 TATA luciferase reporter in the test with Cf2-PBD-VP64 (human) of 2 fold.
